Measurements from patent US7812117B2, “Vasostatin as marrow protectant” (The United States of America as represented by the …, priority 1998, dated 2010).

Columns and labels:
[1] = system: peripheral blood white cells
Protocol: Groups of mice (C57BL/B6, 6 weeks old, 10 mice/group) were treated for 4 days with either buffer (PBS, 100 μl/mouse/day), native vaso (200 μg/mouse/day s.c) or denatured vaso ([…]). On day 5, some of the animals were treated with cytoxan and the original treatment with buffer, native or denatured vaso was continued. On day 9 (5 days after one half of the mice had received cytoxan), peripheral blood white cell counts were measured.
To examine whether the effects of vaso on the hematopoietic system are attributable to the native protein, the effects of native vaso were compared with the effects of vaso that had been denatured by boiling. Groups of mice (n=10) were treated for 4 days with either buffer (100 μl/mouse s.c); native vaso (200 μg/mouse/day s.c); or denatured vaso (300 μg/mouse/day s.c). On day 5, some of the mice were injected with cyclophosphamide (2 mg/mouse/i.p.) and treatment continued with either buffer, native vaso or denatured vaso. The experiment was terminated on day […], at which time peripheral blood counts were measured.

[2] = system: peripheral blood white cells; remark: listed apart in the source
Protocol: Mice (C57BL/B6, females, 7.5 weeks old) were treated for 1 week with daily inoculations of vaso (300 μg/mouse) or buffer alone. On day 8, the mice received cytoxan (1 or 2 mg/mouse) and continued daily inoculation with buffer or vaso. Peripheral blood white cell counts were measured on day 5 after administration of cytoxan.
C57BL6J mice (7 weeks of age) were first treated for 7 days daily with either buffer (100 μl s.c.) or vaso (300 μg/mouse in 100 μl of buffer s.c.). On day 8, groups of mice (n=6) pretreated with either buffer or vaso were injected with cyclophosphamide (1.0 or 2.0 mg/mouse) and continued on daily inoculations of buffer (100 μl s.c.) or vaso (300 μg/mouse in 100 μl of buffer s.c.). Additional control mice were treated with only buffer or vaso for 5 additional days. On days 3 and 5 after cyclophosphamide injection, ½ of the mice were killed for evaluation of the bone marrow and peripheral blood.

[3] = system: human Burkitt lymphoma cell line CA46; assay: CA46 tumor size and weight in irradiated BALB/c nu/nu mice treated with MBP or MBP-vaso; format: in vivo; conditions: 400 rad, CA46 s.c.; MBP 40 μg/mouse/day or MBP-vaso 60 μg/mouse/day s.c.
Protocol: (§1) To examine this further, 7 week old BALB/c nu/nu mice were first irradiated with 400 rad. After 24 hr, the mice were incoculated s.c. with the human Burkitt lymphoma cell line CA46. One group of mice (n=12) was treated s.c. with the control protein maltose binding protein (MBP, 40 μg/mouse/day), whereas another group (n=12) was treated s.c. with MBP-vaso (60 μg/mouse/day). Some of the mice from each group were killed on day 15, whereas the other mice were kept for up to 2.5 months.

human CD34+ cells = assay: Proliferation of purified human peripheral blood CD34+ cells; format: cell-based
Protocol: FIG. 12 is a bar graph of the proliferative responses of human CD34-positive cells to vaso. Human CD34-positive cells purified (>90% purity) from the peripheral blood of a normal individual after G-CSF mobilization following standard procedures were cultured (1×10^6 cells/ml) in 24 well tissue culture plates in RPMI 1640 medium supplemented with 15% FBS. […] Vaso was added at 10 μg/ml. Cell proliferation was measured during the final 22 hr of a 5, 6 or 9 day culture by ^3H thymidine incorporation. Data is shown as the mean of triplicate cultures.
To this end, CD34+ cells were purified to a high degree of homogeneity (>90% purity) from the peripheral blood of normal donors, according to established protocols (Mavroudis et al. Bone Marrow Transplant 21:431-40, 1998).
The purified human CD34+ cells along with the negatively selected CD34− mononuclear cell population were cultured in RPMI 1640 medium containing 15% FBS. Human Stem Cell Factor (300 ng/ml) and Flt-3 ligand (300 ng/ml) were added to the culture medium. […] Thus, purified hematopoietic cells from both mouse and man proliferate in response to vaso.
Vaso, calreticulin fragment 103-163, calreticulin fragment 120-146, and calreticulin fragment 128-146 (all used at 10 μg/ml) were tested in side-by-side assays for their ability to stimulate murine bone marrow hematopoietic cells in the presence of IL-3 (20 ng/ml). […]

murine bone marrow cells [4] = system: murine bone marrow cells
[5] = system: bone marrow hematopoietic cells; assay: Radiation-induced toxicity in irradiated tumor-bearing BALB/c nu/nu mice (appearance, femural bone marrow histology); format: in vivo, mouse
Protocol: This healthier appearance was due, in part, to the larger weight of mice treated with vaso compared to the controls.
as §1

murine bone marrow cells [6] = assay: Murine bone marrow cell proliferation in vitro ([3H] thymidine incorporation)
[7] = system: fetal bovine heart endothelial cells (FBHEC); conditions: as previously reported (Pike et al., 1998; 1999); cited from earlier work
[8] = vaso 10 μg/ml in the presence of growth factors

In the case of `O=P1(N(CCCl)CCCl)NCCCO1` (stereo not drawn) [cyclophosphamide, reference compound], the “peripheral blood white cell counts” value ([1]; cyclophosphamide 2 mg/mouse i.p. with buffer, vs buffer-only controls) is reported as “markedly reduced” and the “peripheral blood white cell counts on day 5 after cyclophosphamide” value ([2]; cyclophosphamide 2.0 or 1.0 mg/mouse alone, vs buffer or vaso alone controls) is reported as “significantly reduced”.

B1: vaso: N-terminal domain of calreticulin (amino acids 1-180, SEQ ID NO:3); given as fusion protein with maltose binding protein, MBP-vaso (protein)
chain: EPAVYFKEQFLDGDGWTSRWIESKHKSDFGKFVLSSGKFYGDEEKDKGLQTSQDARFYALSASFEPFSNKGQTLVVQFTVKHEQNIDCGGGYVKLFPNSLDQTDMHGDSEYNIMFGPDICGPGTKKVHVIFNYKGKNVLINKDIRCKDDEFTHLYTLIVRPDNTYEVKIDNSQVESGSLE
modifications: Vasostatin
In the case of B1, the “peripheral blood white cell counts after cyclophosphamide (alleviation of toxicity)” value ([1]; cyclophosphamide 2 mg/mouse i.p. plus native vaso 200 μg/mouse/day s.c. or denatured vaso 300 μg/mouse/day s.c.) is reported as “minimally different from those of the control mice”, the tumor size [3] is reported as 0.67 cm^2 and the tumor weight [3] is reported as 0.22 g. For the same molecule, the “cell growth of purified human CD34+ peripheral blood cells” value (human CD34+ cells; IL-3 alone or IL-3 together with IL-6 and Stem Cell Factor) was “similarly stimulated cell growth”, the “proliferation of CD34+ cells” value (human CD34+ cells; vaso 10 μg/ml, Stem Cell Factor 300 ng/ml and Flt-3 ligand 300 ng/ml) was “responded with increased proliferation” and the “bone marrow cell proliferation induced by IL-3 at the highest dose of cisplatinum” value (murine bone marrow cells [4]) was “minimal”. For the same molecule, the “reduction in peripheral blood white cell counts caused by cyclophosphamide, day 5” value ([2]; cyclophosphamide 2.0 or 1.0 mg/mouse with vaso 300 μg/mouse/day) was “alleviated”, the “appearance of irradiated mice” value ([5]; BALB/c nu/nu mice, 400-450 rad, injected s.c. with human tumor cell lines, vs buffer control) was “appeared healthier” and the “femural bone marrow histology after 400 rad total body irradiation” value ([5]; MBP 40 μg/mouse/day or MBP-vaso 60 μg/mouse/day s.c. after irradiation) was “can protect the hematopoietic tissue from radiation-induced toxicity”. The “murine bone marrow cell proliferation with or without cisplatinum” value (murine bone marrow cells [6]; Vaso 10 μg/ml, IL-3 (30 μg/ml), cisplatinum between 5 and 0.02 nM) was “enhanced murine bone marrow cell proliferation”, the “growth of murine hematopoietic cells after 5 or 6 days of culture” value (murine bone marrow cells [6]; all used at 10 μg/ml, IL-3 20 ng/ml) was “stimulated the growth” and the “bone marrow cell proliferation vs growth factors alone” value (murine bone marrow cells [6]; day 5, vaso 12.5-50 μg/ml added to IL-3 plus IL-6 plus Stem Cell Factor) was 21-54 fold. For the same molecule, the “mafosfamide concentrations at which growth stimulatory effect of vaso was appreciable” value (murine bone marrow cells [6]; mafosfamide added after 3 days of culture) was ≤ 8 µg/mL, the “increase in cell proliferation on day 5” value (murine bone marrow cells [6]; unseparated marrow, vaso 10 μg/ml, IL-3 20 ng/ml) was 3.4 fold and the “direct stimulation of bone marrow cell proliferation” value (murine bone marrow cells [6]; vaso 10 μg/ml in medium alone, no growth factors) was “failed to directly stimulate”. For the same molecule, the “promotion of bone marrow cell proliferation on day 5” value (murine bone marrow cells [6]; [8]) was 39 fold, the “promotion of bone marrow cell proliferation on day 6” value (murine bone marrow cells [6]; [8]) was 17 fold and the “promotion of bone marrow cell proliferation on day 4” value (murine bone marrow cells [6]; vaso 10 μg/ml in the presence of growth factors (IL-3, IL-6, stem cell factor)) was 6.5 fold. The “stimulation of background cpm” value (murine bone marrow cells [6]; vaso 10 μg/ml, absence of exogenously added growth factors, 7 day culture) was “approximately 2 fold”, the “promotion of bone marrow cell proliferation in the presence of Etoposide” value (murine bone marrow cells [6]; vaso 10 μg/ml, Etoposide 77 nM, growth factors) was “to the same or greater degree than in the absence of Etoposide” and the “increase of IL-3-induced bone marrow proliferation in the presence of Etoposide” value (murine bone marrow cells [6]; vaso 10 μg/ml, Etoposide 385-15.4 nM, day 5) was “evident even in the presence of Etoposide”. The “bone marrow cell proliferation induced by IL-3, day 5” value (murine bone marrow cells [6]; vaso 10 μg/ml, IL-3 20 ng/ml) was “enhanced bone marrow cell proliferation”, the “enhancement of IL-3 induced response on day 4” value (murine bone marrow cells [6]; vaso 10 μg/ml, IL-3 20 ng/ml) was “approximately 3 fold” and the “enhancement of proliferative response on day 5 or 6” value (murine bone marrow cells [6]; vaso 10 μg/ml, IL-3 or combination of IL-3, IL-6 and Stem Cell Factor) was 7-16 fold. The “proliferative response on day 3” value (murine bone marrow cells [6]; vaso 10 μg/ml, combination of IL-3, IL-6 and Stem Cell Factor) was “enhanced the response induced by the combination of IL-3, IL-6 and Stem Cell Factor slightly”, the “proliferation of bone marrow cells exposed to mafosfamide” value (murine bone marrow cells [6]; vaso 12.5 μg/ml, growth factors, 6 days culture) was “markedly enhanced” and the “bone marrow cell proliferation in the presence of methotrexate” value (murine bone marrow cells [6]; vaso 0.25-10 μg/ml, methotrexate 100 nM and growth factors, 7 day culture) was “dose-dependently stimulated”. For the same molecule, the “proliferation of primary cultures of FBHEC” value [7] was “consistently inhibited the proliferation”.
